Experimental data published in IntAct's records for PubMed 16326715.

B1: Neutrophil cytosol factor 1 (Homo sapiens), P14598 (parent)
chain: MGDTFIRHIALLGFEKRFVPSQHYVYMFLVKWQDLSEKVVYRRFTEIYEFHKTLKEMFPIEAGAINPENRIIPHLPAPKWFDGQRAAENRQGTLTEYCSTLMSLPTKISRCPHLLDFFKVRPDDLKLPTDNQTKKPETYLMPKDGKSTATDITGPIILQTYRAIANYEKTSGSEMALSTGDVVEVVEKSESGWWFCQMKAKRGWIPASFLEPLDSPDETEDPEPNYAGEPYVAIKAYTAVEGDEVSLLEGEAVEVIHKLLDGWWVIRKDDVTGYFPSMYLQKSGQDVSQAQRQIKRGAPPRRSSIRNAHSIHQRSRKRLSQDAYRRNSVRFLQQRRRQARPGPQSPGSPLEEERQTQRSKPQPAVPPRPSADLILNRCSESTKRKLASAV
partner: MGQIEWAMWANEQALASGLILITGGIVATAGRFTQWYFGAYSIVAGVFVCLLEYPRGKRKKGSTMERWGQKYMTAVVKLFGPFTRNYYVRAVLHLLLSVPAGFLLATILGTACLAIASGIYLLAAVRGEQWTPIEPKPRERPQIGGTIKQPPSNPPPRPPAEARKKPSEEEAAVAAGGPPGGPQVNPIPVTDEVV
B2: Cytochrome b-245 light chain (Homo sapiens), P13498 (parent)
chain: B1 partner

Variants of: B1
Conditions: with cy24a_human CYBA, P13498

| effect of a mutation on the interaction | Variant |
| --- | --- |
| decreasing interaction | I164A |
| decreasing interaction | F209A |

Variants of: B2
Conditions: with ncf1_human NCF1, P14598

| effect of a mutation on the interaction | Variant |
| --- | --- |
| decreasing interaction | A163G;R164G |
